Data reported in article PMC8081665, “Structural and biochemical mechanisms of NLRP1 inhibition by DPP9” (Nature, 2021).
Where two headings read alike, the source gives them in different places.

Assays:
rat DPP9 (rat) [1] = test: cryo-EM structure; purified complex after gel filtration, about 0.3 mg/ml in 25 mM Tris-HCl pH 8.0, 150 mM NaCl, 3 mM DTT; Titan Krios 300 kV
[2] = target: GST–rNLRP1 FIIND(S969A) (rat) (UniProt D9I2G3); test: SEC; Superose 6 10/30, 10 mM Tris pH 8.0, 100 mM NaCl; purified GST–rNLRP1 FIIND(S969A)–rDPP9 complex incubated with fully processed rNLRP1 FIIND at a molar ratio of about 1:1 at 4 °C for 150 min
[3] = target: T1, UPA subdomain of the autocleaved rNLRP1 FIIND (rat, UniProt D9I2G3 969-1122); test: crystal structure; rNLRP1 FIIND at 8 mg/ml, hanging drop at 18 °C, 1.0 M ammonium sulfate, 0.1 M Bis-Tris pH 5.5, 1% PEG 3,350; conditions: both partners purified
T1 construct: rat NLRP1, from S969, the residue after the autocleavage site, to the end of the FIIND construct (1122); source: sf21 insect cells, purified; product of the autocleavage of rNLRP1 FIIND (822-1122)
T1 sequence (looked up): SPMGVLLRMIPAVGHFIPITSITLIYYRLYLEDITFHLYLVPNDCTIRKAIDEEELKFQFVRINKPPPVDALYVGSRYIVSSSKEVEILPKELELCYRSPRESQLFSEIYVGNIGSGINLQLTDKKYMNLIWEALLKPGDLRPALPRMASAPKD

rat DPP9 (rat) [4] = test: cryo-EM structure; purified complex after gel filtration, about 0.3 mg/ml in 25 mM Tris-HCl pH 8.0, 150 mM NaCl, 3 mM DTT; Titan Krios 300 kV; remark: listed apart in the source
Target sequence in this assay (Q8BVG4 other isoform, or with tags, fused parts or gaps): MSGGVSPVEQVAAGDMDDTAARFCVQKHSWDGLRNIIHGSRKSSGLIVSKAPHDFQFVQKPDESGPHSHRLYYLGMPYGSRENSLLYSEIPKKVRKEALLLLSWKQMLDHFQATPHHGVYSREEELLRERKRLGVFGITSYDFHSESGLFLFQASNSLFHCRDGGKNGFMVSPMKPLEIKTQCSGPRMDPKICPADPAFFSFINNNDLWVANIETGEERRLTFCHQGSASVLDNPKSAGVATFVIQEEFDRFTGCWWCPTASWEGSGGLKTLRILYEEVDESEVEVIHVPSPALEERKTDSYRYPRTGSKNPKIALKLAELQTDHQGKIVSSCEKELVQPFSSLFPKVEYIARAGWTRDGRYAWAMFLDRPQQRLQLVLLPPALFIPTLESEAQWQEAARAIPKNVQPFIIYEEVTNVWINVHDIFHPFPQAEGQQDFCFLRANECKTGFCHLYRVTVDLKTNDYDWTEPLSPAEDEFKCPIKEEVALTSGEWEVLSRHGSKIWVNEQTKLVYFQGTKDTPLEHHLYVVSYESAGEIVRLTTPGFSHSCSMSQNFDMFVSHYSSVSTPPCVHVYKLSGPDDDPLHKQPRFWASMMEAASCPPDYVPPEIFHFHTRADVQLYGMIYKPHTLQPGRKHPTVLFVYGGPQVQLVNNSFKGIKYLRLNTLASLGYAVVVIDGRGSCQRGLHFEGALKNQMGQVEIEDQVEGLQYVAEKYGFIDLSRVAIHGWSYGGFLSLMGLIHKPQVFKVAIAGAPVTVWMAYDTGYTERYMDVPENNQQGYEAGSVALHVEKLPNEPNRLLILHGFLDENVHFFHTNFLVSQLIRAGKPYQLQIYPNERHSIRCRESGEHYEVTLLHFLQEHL

[5] = target: the molecule itself; test: as above

## rat DPP9 (enzyme)
Rat DPP9 (rat) [1]
  stoichiometry N: 2
[2]
  stoichiometry N: 1

B1: ZU5 subdomain of the autocleaved rNLRP1 FIIND (domain or fragment, rat, UniProt D9I2G3 822-968, looked up)
chain: GDKHMEPLGTDDDFWGPSGPVSTEVVDRERNLYRVRLPMAGSYHCPSTGLHFVVTRAVTIEIGFCAWSQFLHETPLQHSHMVAGPLFDIKAEHGAVTAVCLPHFVSLQEGKVDSSLFHVAHFQDHGMVLETPARVEPHFAVLENPSF
notes: rat NLRP1, from the start of the FIIND construct (822) to F968, the residue before the autocleavage site; source: sf21 insect cells, purified; product of the autocleavage of rNLRP1 FIIND (822-1122); not shown: GST, N-terminal, cleaved
[3]
  binding result: binds

B2: full-length rat NLRP1 (natural protein, UniProt D9I2G3 1-1218, looked up)
chain: MEESQSKQESNTRVAQHGSQQDVDPTFQTKRALEKERSKPRPRPLPRVQLQSLPGWSSTSKDVPLSQLIREMDHESRRCIHRSKKKLDRSEHISQGTIPEIYEKRKETISHTQSMEQKYLFQNFTKLLLLQKCCPGGSEKLVRESWHPCVPEEGGHMIEIQDLFDPNLDTEKKPQLVIIEGAAGIGKSTLARQVKRAWDEGQLYRDRFQHVFFFSCRELAQCKQLSLAELIAQGQEVPTAPTRQILSRPEKLLFILDGIDEPAWVLEDQNPELCVHWSQAQPVHTLLGSLLGKSILPEASLMLTARTTALQKLVPSLGQPHRVEVLGFSEFERKDYFYKYFAKERNTIIDFNLIGSIPVLLTLCEVPWVCWLLCTCLEKQMQQGEVLSLTSQTTTALCLKYLSLTIPGQHLSTQLRTLCSLAAEGICQRRTLFSKSDLCKQGLAEDAIATFLKIGVLQRQPSSLSYSFAHLCLQEFFAAMSYILEDSEEAHGDMGNDRTVETLVERYGRQNLFEAPTVRFLLGLLNTREMREMENIFACKFPWETKLKLLQSIIGEPFCQPCHLGLFHCLYENQEEELLTETMLCFPLTASGPNHMEATVFQTNVKRLVIQTDMELMVVTFCITFSHVRSLRLKGKGQQEYKLTAPAMVLYRWTPISEASWKVLFSNLKCTRNLEELDLSGNPLSYSAVRSLCTALRQPGCRLKTLWLVDCGLTSRCCSFLASMLSAHSRLAELDLRLNDLGDNGVRQLCEGLRNPACNLSILRLDQASLSEQVITELRALETKNPKLFISSTWMSHMTMPTENTDGEESLTSSKQQQQQSGDKHMEPLGTDDDFWGPSGPVSTEVVDRERNLYRVRLPMAGSYHCPSTGLHFVVTRAVTIEIGFCAWSQFLHETPLQHSHMVAGPLFDIKAEHGAVTAVCLPHFVSLQEGKVDSSLFHVAHFQDHGMVLETPARVEPHFAVLENPSFSPMGVLLRMIPAVGHFIPITSITLIYYRLYLEDITFHLYLVPNDCTIRKAIDEEELKFQFVRINKPPPVDALYVGSRYIVSSSKEVEILPKELELCYRSPRESQLFSEIYVGNIGSGINLQLTDKKYMNLIWEALLKPGDLRPALPRMASAPKDAPALLHFVDQHREQLVARVTSVDPLLDKLHGLVLSEEDYETVRAEATNQDKMRKLFRGSRSWSWDCKDHFYQALKETHPHLIMDLLEKSGGVSVRL
notes: rat NLRP1, residues 1-1218, gene synthesized from GenBank HM060632.1; Autocleaves in the FIIND between F968 and S969; of the second copy only UPA is seen, and the abstract calls it a UPA-CARD fragment; also called rNLRP1; full-length rNLRP1; source: sf21 insect cells (baculovirus), co-expressed with rDPP9, purified (GS4B, PreScission, gel filtration); not shown: GST, N-terminal, cleaved
Rat DPP9 (rat) [4]
  stoichiometry N: 2
[5]
  binding result: binds

B3: rNLRP1 FIIND–CARD(S969A) (domain or fragment)
chain: GDKHMEPLGTDDDFWGPSGPVSTEVVDRERNLYRVRLPMAGSYHCPSTGLHFVVTRAVTIEIGFCAWSQFLHETPLQHSHMVAGPLFDIKAEHGAVTAVCLPHFVSLQEGKVDSSLFHVAHFQDHGMVLETPARVEPHFAVLENPSFAPMGVLLRMIPAVGHFIPITSITLIYYRLYLEDITFHLYLVPNDCTIRKAIDEEELKFQFVRINKPPPVDALYVGSRYIVSSSKEVEILPKELELCYRSPRESQLFSEIYVGNIGSGINLQLTDKKYMNLIWEALLKPGDLRPALPRMASAPKDAPALLHFVDQHREQLVARVTSVDPLLDKLHGLVLSEEDYETVRAEATNQDKMRKLFRGSRSWSWDCKDHFYQALKETHPHLIMDLLEKSGGVSVRL
Rat DPP9 (rat) [4]
  stoichiometry N: 1
